Assay results published in patent EP1486506A1 (INSTITUT NATIONAL DE LA SANTE ET DE LA RECHERCHE MEDICALE …, dated 2004).

Target: T1, LexA alone (UniProt P0A7C2 1-202)
T1 construct: also called only the LexA part of the fusion protein
T1 sequence: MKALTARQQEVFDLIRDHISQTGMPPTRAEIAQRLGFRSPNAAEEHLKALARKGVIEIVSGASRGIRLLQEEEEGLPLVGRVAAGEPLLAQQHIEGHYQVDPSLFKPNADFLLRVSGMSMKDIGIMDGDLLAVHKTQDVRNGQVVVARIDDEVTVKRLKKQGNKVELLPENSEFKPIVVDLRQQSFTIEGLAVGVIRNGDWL
Assay: yeast two-hybrid GFP reporter, flow cytometry (control, Fig. 2E)

B1: VP16-HIPK2/PEST (other)
chain: HVMRQQPTSTTSSRKSKQHQSSVRNVSTCEVTSSQAISSPQRSKRVKENTPPRCAMVHSSPACSTSVTCGWGDVASSTTRERQRQTIVIPDTPSPTVSVITISSDTDEEEEQKHAPTSTVSKQRKNVISCVTVHDSP
notes: range 789-925
- binding result: no binding
